According to patent US7265215:

Experiments:
[1] = target: protein expressed by the recombinant baculovirus clone containing DEN-2 prME genes (ACNPV-prME) (dengue 2 virus); assay: antigen dot blot, extract of infected High-5 cells, mAb 1:100, 125I goat anti-mouse immunoglobulin
[2] = target: dengue 2 virus recombinant envelope glycoprotein (rEgp) expressed by baculovirus (dengue 2 virus (strain PR 159)) (UniProt P12823); assay: as above
[3] = target: protein extracted from High-5 cells infected with wild-type baculovirus; assay: antigen dot blot, negative control extract of wild-type baculovirus infected High-5 cells, mAb 1:100
[4] = target: native envelope glycoprotein (Egp) on purified DEN-2 virus (dengue 2 virus) (UniProt P14340); assay: antigen dot blot, purified DEN-2 virus, mAb 1:100, 125I goat anti-mouse immunoglobulin
[5] = target: dengue 2 virus recombinant envelope glycoprotein (rEgp) expressed by baculovirus (dengue 2 virus (strain PR 159)) (UniProt P12823); assay: particle fluorescence assay (PFCIA), FITC-labeled mAb on antigen-coated polystyrene beads, pH 5.0, lysate of cells infected with the E-protein recombinant baculovirus
[6] = target: dengue 2 virus recombinant envelope glycoprotein (rEgp) expressed by baculovirus (dengue 2 virus (strain PR 159)) (UniProt P12823); assay: particle fluorescence assay (PFCIA), FITC-labeled mAb on antigen-coated polystyrene beads, pH 5.0, partially-purified recombinant E protein
[7] = target: native envelope glycoprotein (Egp) on purified DEN-2 virus (dengue 2 virus) (UniProt P14340); assay: particle fluorescence assay (PFCIA), FITC-labeled mAb on antigen-coated polystyrene beads, pH 5.0, purified DEN-2 virus

Substance	Reactivity with antigen (cpm) [1] [cpm]	Reactivity with antigen (cpm) [2] [cpm]	Reactivity with antigen (cpm) [3] [cpm]	Reactivity with antigen (cpm) [4] [cpm]	Binding affinity [5]	Binding affinity [6]	Binding affinity [7]
monoclonal antibody 3H5	10100	13600	1400	7500	–	–	–
monoclonal antibody 4G2	5000	8500	1000	16800	2.9e-06	2.3e-06	1.3e-06
